The values below come from patent publication US20250340623A1.

Assay [1] has as its target alpha-synuclein fibrils, P37840. The assay can be described thus: SPR, captured mAb. The note with it: remark: other sources report otherwise.
Assay [2] has as its target monomeric alpha-synuclein, P37840. The assay can be described thus: SPR, captured mAb. The note with it: remark: other sources report otherwise.

B1: ACI-8033-4F3-Ab1 (antibody, V domains shown)
VH: EVQLQQSGPELVKPGASVKISCKASGYTFTDYYMNWVKQSHGKSLEWIGDINPNTGTNSYNQKFKGRASLTVDKFSSAAYMELRSLTSEDSAVYYCARTGYGDPISSYYYALDYWGQGTSVTVSS
VL: DIVMSQSPSSLAVSAGEKVTMSCKSSQSLLNSRTRKNYLAWYQQKPGQSPKLLIYWASTRESGVPDRFTGSGSGTDFTLTISSVQAEDLAVYYCKQSYNLWTFGGGTKLEIK
In assay [1], B1 displayed a Kd of 0.05 nM, a koff of 2.24e-07 s⁻¹ and a kon of 4500 M⁻¹ s⁻¹. In addition, in assay [2], the Kd came out at 1.7 nM, the koff is 0.00016 s⁻¹ and the on-rate (kon) worked out at 97000 M⁻¹ s⁻¹.

B2: ACI-8033-17F5-Ab1 (antibody, V domains shown)
VH: EVQLQQSGPELVKPGASVKISCKASGYTFTDYFMNWVKQSHGKSLEWIGDINPNIDVTNYNQKFKGKATLTVDKSSSTAYMELRSLTSEDSAVYYCARGRDYAMDFWGQGTSVTVSS
VL: DIVMSQSPSSLAVSAGEKVTMSCKSSQSLLNSRTRKNYLAWYQQKPGQSPKLLIYWASTRESGVPDRFTGSGSGTDFTLTISSVQAEDLAVYYCKQSYDLWTFGGGTKLEIK
In assay [1], B2 returned a dissociation constant Kd of 8.7 nM, a koff of 0.00012 s⁻¹ and a kon of 13700 M⁻¹ s⁻¹. Moreover, in assay [2], the Kd came out at 2.4 nM, the koff was 0.000232 s⁻¹ and the kon worked out at 96600 M⁻¹ s⁻¹.

B3: ACI-7088-4305H7-Ab1 (antibody, V domains shown)
VH: EVQLQQSGAELVRPGASVKLSCTASGFNIKDDYMHWVKQRPEQGLEWIGWIDPENGDTEYASKFQGKATMIADTSSNTAYLQLSSLTSEDTAVYYCKTWGTTQALFPYWGQGTLVTVSS
VL: DIVMTQSQKFMSTSVGDRVSITCKASQNVGTAVGWYQQKAGQSPKLLIHSASNRYTGVPDRFTGSGSGTDFTLTINNMQSEDLADYFCQQYRSYPLTFGAGTKLELK
In the case of B3, in assay [1], the Kd is 8.4 nM, the koff was 0.000203 s⁻¹ and the kon came out at 24200 M⁻¹ s⁻¹. In assay [2], the dissociation constant Kd is 3.4 nM, the koff worked out at 0.0924 s⁻¹ and the kon worked out at 2.73e+07 M⁻¹ s⁻¹.

B4: ACI-7067-1108H1-Ab1 (antibody, V domains shown)
VH: EVKLVESGGGLVQPGGSMKLSCTASGFTFSDAWMNWVRQSPEKGLEWVAEIRNKAHNHATNYAESVKGRFTISGDDSKSSVYLQMNNLRAEDTGIYYCTIYSFWGQGTLVTVSA
VL: SIVMTQTPKFLLVSAGDRVTITCKASQSVTNYVAWYHQKPGQSPKLLIYSASNRYSGVPDRFTGSGYGTDFTFTINTVQTEDLAVYFCQQDYRIPYTFGGGTKLEIK
As to B4, in assay [1], the Kd was 14.3 nM, the koff was 0.00118 s⁻¹ and the kon was found to be 271000 M⁻¹ s⁻¹. In assay [2], this molecule came in with a Kd of 4.4 nM, a koff of 0.000565 s⁻¹ and an on-rate constant (kon) of 131000 M⁻¹ s⁻¹.

B5: ACI-8033-19A2-Ab1 (antibody, V domains shown)
VH: EVQLVESGGGLVQPKGSLKLSCAASGFSFNTYAMNWVRQAPGKGLEWVARIRSKSNNYATYYVDSVKDRFTISRDDSESMLYLQMNNLKTEDTALYYCVSESAYWGQGTLVTVSA
VL: DVVMTQTPLSLPVSLGDQASISCRSSQSLVHSNGNTYLYWYLQKPGQSPKLLIYKVSNRLSGVPDRFSGSGSGTDFTLKISRVEAEDLGVYFCSQSTHVPFTFGSGTKLEIK
As to B5, in assay [1], the dissociation constant Kd worked out at 6.7 nM, the koff turned out to be 0.000119 s⁻¹ and the kon turned out to be 17700 M⁻¹ s⁻¹. In assay [2], this molecule displayed a dissociation constant (Kd) of 6.2 nM, a koff of 0.0828 s⁻¹ and a kon of 1.33e+07 M⁻¹ s⁻¹.

B6: ACI-8033-1A12-Ab1 (antibody, V domains shown)
VH: QVHLKQSGADLVRPGASVKLSCKASGYSFTDFYINWVKQTPGQGLEWIARIYPGNNNTFYNEKFKGKATLSAEKSSTTAYMQLSSLTSEDSAVYFCVVGYYGAWGQGTTLTVSS
VL: DVVMTQTPLSLPVSLGDQASISCRSSQSLVHSNGNTHLHWYLQKPGQSPKLLIYKVSNRFSGVPDRFSGSGSGTDFTLKISRVEAEDLGFYFCSQSTHVPWTFGGGTKLEIK
In assay [1], B6 had a Kd of 9.8 nM, a dissociation rate constant (koff) of 6.53e-05 s⁻¹ and a kon of 6660 M⁻¹ s⁻¹. In assay [2], this molecule showed a Kd of 31.9 nM, an off-rate (koff) of 0.0327 s⁻¹ and a kon of 1.02e+06 M⁻¹ s⁻¹.

B7: ACI-8033-18C11-Ab1 (antibody, V domains shown)
VH: QVQLQQPGAELVKPGASVKMSCKAAGYTFSSYWITWVRQRPGQGLDWIGDIYPGGGVTNYNEKFKTKATLTVDTSSSTAYMQLSSLTSEDSAVYYCATAQTTFAYWGQGTLVTVSA
VL: DVLMTQTPLSLPVSLGDQASISCRSSQNIVHNNGNTYLEWYLQKPGQSPKLLIYKVSNRFSGVPDRFSGSGSGTDFTLKISRVEAEDLGVYYCFQGSHVPRTFGGGTKLEIK
In assay [1], B7 came in with a Kd of 30.4 nM, a koff of 0.000251 s⁻¹ and an on-rate constant (kon) of 8270 M⁻¹ s⁻¹. For the same molecule, in assay [2], the equilibrium dissociation constant (Kd) was 1.8 nM, the off-rate (koff) was 0.000263 s⁻¹ and the kon came to 143000 M⁻¹ s⁻¹.

B8: ACI-7089-4409F1-Ab1 (antibody, V domains shown)
VH: DVQLQESGPGLVKPSQSLSLTCSVTGYSITRGYYWNWIRQFPGNKLEWMGYISYDGSNNYNPSLRNRISITRDTSKNQFFLKLKSVTTEDTATYFCARGDSNWGQGTTLTVSA
VL: not shown
In assay [1], B8 came in with an equilibrium dissociation constant (Kd) of 8.8 nM, a koff of 0.00587 s⁻¹ and an on-rate (kon) of 667000 M⁻¹ s⁻¹. In assay [2], this molecule gave a Kd of 6.4 nM, a koff of 0.000992 s⁻¹ and a kon of 154000 M⁻¹ s⁻¹.

B9: ACI-8033-1F8-Ab1 (antibody, V domains shown)
VH: DVQLQESGPGLVKPSQSLSLTCSVTGYSITSGFYWNWIRQFPGNKLEWMGYISYDGSNNYNPSLKNRISIIRDTSKNQFFLKLKSVTSEDTATYYCVRGDVDWGQGTTLTVSS
VL: not shown
For the molecule B9, in assay [1], the dissociation constant Kd was found to be 1010 nM, the dissociation rate constant (koff) is 0.000996 s⁻¹ and the kon worked out at 983 M⁻¹ s⁻¹. In assay [2], this molecule displayed a Kd of 24.3 nM, an off-rate constant (koff) of 0.000738 s⁻¹ and a kon of 30400 M⁻¹ s⁻¹.

B10: ACI-7089-4418F6-Ab1 (antibody, V domains shown)
VH: QVQLQQSGAELARPGASVKVSCKASGYTFTSSGISWLKHRTGQGLEWIGDIYPRSGNTYYNEKFKDKATLTADKSSSTAYMELRSLTSEDSAVYFCSSGNYWGQGTTLTVSS
VL: DIVITQDDLSNPVTSGESVSISCRSSKSLLYKDGKTYLNWFLQRPGQSPQLLIYLMSTRASGVSDRFSGSGSGTDFTLEISRVKAEDVGVYYCQQLLEYPLTFGAGTKLELK
For B10, in assay [1], the Kd is 0.04 nM, the dissociation rate constant (koff) was 1.14e-05 s⁻¹ and the on-rate (kon) was found to be 272000 M⁻¹ s⁻¹. Also, in assay [2], the dissociation constant Kd amounted to 0.1 nM, the off-rate (koff) worked out at 9.25e-06 s⁻¹ and the kon came to 81800 M⁻¹ s⁻¹.

B11: ACI-7088-4303H6-Ab1 (antibody, V domains shown)
VH: EVQLQQSGAELVRPGASVKLSCTASGFNIQDDYMHWVKQRPEQGLEWIGWIDPENGDTEYASKFQGKATLTADTSSNTAYLQLSRLTSEDTAVYYCTTAGSGVQLFDYWGQGTTLTVSA
VL: DILMTQSQKFMSTSVGDRVSVTCKASQNVGTNVAWYQQKPGQSPKPLISSASSRYSGVPDRFTGSGSGTDFTLTISNVQSEDLADYFCQQYNRYPLTFGAGTKLELK
For the molecule B11, in assay [1], the Kd amounted to 43.7 nM, the koff was 0.000636 s⁻¹ and the association rate constant (kon) was 14600 M⁻¹ s⁻¹. In assay [2], this molecule displayed a Kd of 195 nM, a koff of 0.0067 s⁻¹ and a kon of 34400 M⁻¹ s⁻¹.
